Target: Dendritic cell-specific intercellular adhesion molecule 3-grabbing nonintegrin (DC-SIGN), on the Biacore chip (UniProt Q9NNX6)
Experiment: SPR

Chain of UniProt Q9NNX6 (Q9NNX6 whole entry): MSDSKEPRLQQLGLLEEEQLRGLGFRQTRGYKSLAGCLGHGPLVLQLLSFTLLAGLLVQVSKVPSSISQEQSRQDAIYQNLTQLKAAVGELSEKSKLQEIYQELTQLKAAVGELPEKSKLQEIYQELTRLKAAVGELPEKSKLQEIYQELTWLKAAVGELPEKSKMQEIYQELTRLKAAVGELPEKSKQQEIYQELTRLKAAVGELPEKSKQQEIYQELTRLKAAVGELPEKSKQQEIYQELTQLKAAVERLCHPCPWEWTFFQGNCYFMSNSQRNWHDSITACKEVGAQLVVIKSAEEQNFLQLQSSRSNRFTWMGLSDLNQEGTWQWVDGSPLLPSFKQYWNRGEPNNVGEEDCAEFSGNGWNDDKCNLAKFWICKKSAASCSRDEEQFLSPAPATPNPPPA

## Surface layer protein B (SlpB) from Levilactobacillus brevis JCM 1059 (natural protein)
  Kd: 30.3 nM

From publication doi:10.1101/2023.04.06.534471
